Key:
Test in all cases: pull-down
[1] = target: T1, GST tagged Pom1^aa605-1087 (S. pombe, UniProt Q09690 605-1087)
T1 sequence (looked up): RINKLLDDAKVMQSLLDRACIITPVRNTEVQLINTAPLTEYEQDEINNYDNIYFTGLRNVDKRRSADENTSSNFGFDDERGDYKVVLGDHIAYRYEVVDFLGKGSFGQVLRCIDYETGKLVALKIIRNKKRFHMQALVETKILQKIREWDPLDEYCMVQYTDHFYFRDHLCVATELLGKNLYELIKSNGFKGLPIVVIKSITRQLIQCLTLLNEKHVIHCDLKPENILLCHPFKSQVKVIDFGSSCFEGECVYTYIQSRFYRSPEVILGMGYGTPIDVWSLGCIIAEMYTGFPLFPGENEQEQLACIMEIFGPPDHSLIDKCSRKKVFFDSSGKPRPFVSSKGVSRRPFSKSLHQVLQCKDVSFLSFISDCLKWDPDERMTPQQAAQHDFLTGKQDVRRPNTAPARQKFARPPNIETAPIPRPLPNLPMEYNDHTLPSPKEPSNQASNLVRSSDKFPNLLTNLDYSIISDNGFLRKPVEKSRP

GST tagged Pom1^FL = target: T2, GST tagged Pom1^FL (S. pombe, UniProt Q09690 1-1087)
T2 sequence (looked up): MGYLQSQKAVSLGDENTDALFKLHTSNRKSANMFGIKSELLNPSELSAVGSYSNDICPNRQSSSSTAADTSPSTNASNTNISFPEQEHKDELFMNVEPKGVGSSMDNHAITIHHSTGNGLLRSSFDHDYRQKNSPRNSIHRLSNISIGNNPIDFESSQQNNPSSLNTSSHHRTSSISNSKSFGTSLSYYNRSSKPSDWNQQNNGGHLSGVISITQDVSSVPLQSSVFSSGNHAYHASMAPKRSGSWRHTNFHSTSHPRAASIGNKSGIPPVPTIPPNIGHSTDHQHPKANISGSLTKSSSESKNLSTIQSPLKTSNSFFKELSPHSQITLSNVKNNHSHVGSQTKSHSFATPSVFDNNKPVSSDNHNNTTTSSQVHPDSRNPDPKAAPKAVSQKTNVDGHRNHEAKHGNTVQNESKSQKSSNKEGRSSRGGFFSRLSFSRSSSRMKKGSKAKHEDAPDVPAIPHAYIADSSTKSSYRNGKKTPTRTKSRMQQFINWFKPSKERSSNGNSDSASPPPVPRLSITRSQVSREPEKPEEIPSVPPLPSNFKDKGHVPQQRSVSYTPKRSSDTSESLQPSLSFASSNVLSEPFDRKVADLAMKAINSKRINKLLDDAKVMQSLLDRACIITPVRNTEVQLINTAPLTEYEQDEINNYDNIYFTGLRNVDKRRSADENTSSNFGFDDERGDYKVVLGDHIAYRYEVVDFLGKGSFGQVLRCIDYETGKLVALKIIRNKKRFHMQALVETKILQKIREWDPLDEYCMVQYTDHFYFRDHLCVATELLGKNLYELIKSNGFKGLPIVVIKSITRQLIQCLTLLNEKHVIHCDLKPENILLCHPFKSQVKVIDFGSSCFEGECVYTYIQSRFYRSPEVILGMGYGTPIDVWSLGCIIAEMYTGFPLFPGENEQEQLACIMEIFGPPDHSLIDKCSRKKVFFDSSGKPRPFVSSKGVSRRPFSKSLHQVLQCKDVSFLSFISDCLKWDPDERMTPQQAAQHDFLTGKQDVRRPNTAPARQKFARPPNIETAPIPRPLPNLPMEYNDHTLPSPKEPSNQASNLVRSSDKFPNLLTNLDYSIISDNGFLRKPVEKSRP

GST tagged Pom1^Δaa305N = target: T3, GST tagged Pom1^Δaa305N (S. pombe, UniProt Q09690 306-1087)
T3 sequence (looked up): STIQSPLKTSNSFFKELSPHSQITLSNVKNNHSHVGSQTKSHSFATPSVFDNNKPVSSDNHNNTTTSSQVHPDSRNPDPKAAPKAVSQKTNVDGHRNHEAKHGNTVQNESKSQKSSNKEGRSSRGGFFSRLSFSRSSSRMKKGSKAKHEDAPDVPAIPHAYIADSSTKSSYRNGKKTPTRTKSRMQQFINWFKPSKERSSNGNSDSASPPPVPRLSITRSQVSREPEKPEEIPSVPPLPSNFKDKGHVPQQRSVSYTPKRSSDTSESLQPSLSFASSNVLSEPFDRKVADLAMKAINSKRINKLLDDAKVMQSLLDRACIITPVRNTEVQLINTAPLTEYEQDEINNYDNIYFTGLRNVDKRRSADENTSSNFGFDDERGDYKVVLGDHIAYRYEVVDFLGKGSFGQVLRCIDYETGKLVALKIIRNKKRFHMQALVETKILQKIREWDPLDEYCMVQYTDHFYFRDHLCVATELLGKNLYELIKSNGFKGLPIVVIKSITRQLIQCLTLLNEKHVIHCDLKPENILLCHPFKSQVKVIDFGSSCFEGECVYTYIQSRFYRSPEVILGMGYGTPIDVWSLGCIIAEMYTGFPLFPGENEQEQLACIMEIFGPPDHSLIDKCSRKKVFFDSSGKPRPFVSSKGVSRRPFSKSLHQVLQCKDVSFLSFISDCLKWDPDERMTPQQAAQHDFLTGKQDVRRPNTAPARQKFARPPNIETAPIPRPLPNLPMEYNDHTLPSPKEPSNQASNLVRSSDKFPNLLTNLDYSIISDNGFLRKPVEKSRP

Measured: binding result

B1: MBP-tagged Ptc1^FL (enzyme, S. pombe, UniProt P40371 1-347, looked up)
chain: MKGSHPNAGSLLEPLHKLNPFSENSTSGHRKNASDHSADGETRPIAIEMKDSKGNTVPVGNSRPSKASNWLAGLMEDKNQRWRRSMEDTHICLYDFGGNQDDGFVAVYDGHAGIQASDYCQKNLHKVLLEKVRNEPDRLVTDLMDETFVEVNSKIAKATHNDICGCTAAVAFFRYEKNRTRRVLYTANAGDARIVLCRDGKAIRLSYDHKGSDANESRRVTQLGGLMVQNRINGVLAVTRALGDTYLKELVSAHPFTTETRIWNGHDEFFIIACDGLWDVVSDQEAVDFVRNFVSPREAAVRLVEFALKRLSTDNITCIVVNLTRNPGDLDDSGLTADNDSYSNDYY
binds: [1] | GST tagged Pom1^FL | GST tagged Pom1^Δaa305N

Reference: article PMC8108516 (Molecular Biology of the Cell, 2021)
